Assay results published in US20170355769A1 (AbbVie / Abbott, published 2017).

T1: Human full length B7-H3 (human, UniProt Q5ZPR3 29-534)
T1 construct: On 3T12 fibroblasts expressing full length human B7-H3 or on NCI-H1650 cells; signal peptide residues 1-28 stated; also called huB7-H3; CD276
T1 sequence: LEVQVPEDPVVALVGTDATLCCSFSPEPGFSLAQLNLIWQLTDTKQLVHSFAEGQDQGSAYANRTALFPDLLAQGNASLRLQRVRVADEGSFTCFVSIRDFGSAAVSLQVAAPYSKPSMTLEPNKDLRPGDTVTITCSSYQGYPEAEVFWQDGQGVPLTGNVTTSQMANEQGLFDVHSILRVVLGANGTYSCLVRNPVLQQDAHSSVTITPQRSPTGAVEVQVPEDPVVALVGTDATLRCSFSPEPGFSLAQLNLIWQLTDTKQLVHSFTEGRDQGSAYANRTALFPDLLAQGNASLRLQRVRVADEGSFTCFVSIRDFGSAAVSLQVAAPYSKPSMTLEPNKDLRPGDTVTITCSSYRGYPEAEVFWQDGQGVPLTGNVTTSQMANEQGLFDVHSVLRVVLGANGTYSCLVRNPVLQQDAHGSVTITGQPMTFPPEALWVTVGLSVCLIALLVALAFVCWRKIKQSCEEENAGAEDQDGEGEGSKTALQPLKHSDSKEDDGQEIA

T2: hB7-H3 (ELISA antigen of Tables 17 and 20) (human, UniProt Q5ZPR3 29-466, limits assumed)
T2 sequence: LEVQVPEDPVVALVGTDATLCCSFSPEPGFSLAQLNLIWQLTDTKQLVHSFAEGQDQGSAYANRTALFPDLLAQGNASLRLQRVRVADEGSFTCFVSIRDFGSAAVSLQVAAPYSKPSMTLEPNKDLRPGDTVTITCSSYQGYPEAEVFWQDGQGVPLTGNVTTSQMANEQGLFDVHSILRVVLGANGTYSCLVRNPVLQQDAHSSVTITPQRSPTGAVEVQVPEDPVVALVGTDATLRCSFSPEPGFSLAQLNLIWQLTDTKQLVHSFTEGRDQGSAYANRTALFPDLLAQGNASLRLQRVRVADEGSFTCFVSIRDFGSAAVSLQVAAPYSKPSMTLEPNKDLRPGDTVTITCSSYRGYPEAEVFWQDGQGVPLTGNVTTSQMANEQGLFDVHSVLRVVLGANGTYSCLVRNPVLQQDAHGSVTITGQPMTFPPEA


Tests used:
Human full length B7-H3 [1] = target: T1, Human full length B7-H3; assay: FACS
Human full length B7-H3 [2] = target: T1, Human full length B7-H3; assay: FACS (Example 6 method)
Procedure: (§1) Cells were harvested from flasks when approximately 80% confluent using Gibco® Cell Dissociation Buffer. Cells were washed once in PBS/1% FBS (FACS buffer) then resuspended at 2.5×10⁶ cells/mL in FACS buffer. 100 μL of cells/well were added to a round bottom 96-well plate. 10 μL of a 10× concentration of mAb/ADC (final concentrations are indicated the figures). Wells were washed twice with FACS buffer and resuspended in 50 μL of secondary Ab (AlexaFluor 488) diluted in FACS buffer. The plate was incubated at 4° C. for one hour and washed twice with FACS buffer. Cells were resuspended in 100 μL of PBS/1% formaldehyde and analyzed on a Becton Dickinson LSRII flow cytometer. Data was analyzed using WinList flow cytometry analysis software.
These variants were further characterized for binding by SPR and as ADCs conjugated to the Bcl-xL inhibitor synthon (linker warhead) CZ. […] An ADC comprising chAb3 conjugated to synthon CZ was used as a control.

Human full length B7-H3 [3] = target: T1, Human full length B7-H3; assay: FACS, cell surface human B7-H3 (as Example 6)
Procedure: as §1
Nine anti-B7-H3 chimeric antibodies were conjugated to the Bcl-xL inhibiting (Bcl-xLi) synthon CZ (Example 2.1) using conjugation Method A described below. The resulting ADCs (anti-B7-H3 antibodies conjugated to synthon CZ) were tested for binding to cell surface human B7-H3 by FACS (as described in Example 6) and for cell cytotoxicity in cell lines expressing B7-H3. […] Table 6 provides cell surface binding and cytotoxicity activity of anti-B7-H3 chimera ADCs against breast cancer cell HCC38 expressing human B7-H3.

[4] = target: T2, hB7-H3 (ELISA antigen of Tables 17 and …); assay: ELISA
Human full length B7-H3 [5] = target: T1, Human full length B7-H3; assay: cell-based or functional assay
[6] = target: T3, Cynomolgous B7-H3 on cells (cynomolgus); assay: FACS, 3T12 transfectants
T3 construct: whole, on cells; also called cyB7-H3; cyno B7-H3

Human full length B7-H3 [7] = target: T1, Human full length B7-H3; assay: FACS, 3T12 transfectants

Binder	EC50 (Human full length B7-H3 [2]) [nM]	EC50 [4] [nM]	EC50 [6] [nM]	EC50 (Human full length B7-H3 [7]) [nM]	also measured
huAb13v9 (antibody, V domains shown, humanized IgG) VH: EVQLQESGPGLVKPSETLSLTCAVSGYSITSGYSWHWIRQPPGNGLEWMGYIHSSGSTNYNPSLKSRITISRDTSKNQFSLKLSSVTAADTAVYYCARYDDYFEYWGQGTTVTVSS VL: DIQMTQSPSSLSASVGDRVTITCKASQNVGFNVAWYQQKPGKAPKLLIYSASYRYSGVPSRFSGSGSGTDFTLTISSLQPEDFATYFCQQYNWYPFTFGQGTKLEIK					binding result (Human full length B7-H3 [1]): no binding
huAb13v2 (antibody, V domains shown, humanized IgG) VH: EVQLQESGPGLVKPSETLSLTCAVSGYSITSGYSWHWIRQPPGKGLEWIGYIHSSGSTNYNPSLKSRVTISVDTSKNQFSLKLSSVTAADTAVYYCARYDDYFEYWGQGTTVTVSS VL: DIQMTQSPSSLSASVGDRVTITCKASQNVGFNVAWYQQKPGKAPKLLIYSASYRYSGVPSRFSGSGSGTDFTLTISSLQPEDFATYYCQQYNWYPFTFGQGTKLEIK					binding result (Human full length B7-H3 [1]): no binding
chAb3-CZ (antibody, IgG1, V domains shown, synthon CZ on reduced interchain Cys) VH: QVQLQQPGAELVKPGASVKLSCKASGYTFSSYWMHWVKQRPGQGLEWIGLIHPDSGSTNYNEMFKNKATLTVDRSSSTAYVQLSSLTSEDSAVYFCAGGGRLYFDYWGQGTTLTVSS VL: DVVMTQTPLSLPVSLGDQASISCRSSQSLVHSNGDTYLRWYLQKPGQSPKLLIYKVSNRFSGVPDRFSGSGSGTDFTLKITRVEAEDLGVYFCSQSTHVPYTFGGGTKLEIK	0.61				EC50 (Human full length B7-H3 [3]): 0.65 nM
huAb3v2.5-CZ (antibody, human IgG1, kappa, L234A L235A, V domains shown, synthon CZ on reduced interchain Cys) VH: EVQLVQSGAEVKKPGSSVKVSCKASGYTFSSYWMHWVRQAPGQGLEWIGLIHPESGSTNYNEMFKNRATLTVDRSTSTAYMELSSLRSEDTAVYYCAGGGRLYFDYWGQGTTVTVSS VL: DIVMTQSPLSLPVTPGEPASISCRSSQSLVHSNRDTYLRWYLQKPGQSPQLLIYKVSNRFSGVPDRFSGSGSGTDFTLKISRVEAEDVGVYYCSQSTHVPYTFGGGTKVEIKR		0.13	4.86		EC50 nM H1650 (tumor cell cytotoxicity) (Human full length B7-H3 [5]): 0.4 nM
huAb3v2-CZ (antibody, V domains shown, synthon CZ on reduced interchain Cys) VH: EVQLVQSGAEVKKPGSSVKVSCKASGYTFSSYWMHWVRQAPGQGLEWIGLIHPDSGSTNYNEMFKNRATLTVDRSTSTAYMELSSLRSEDTAVYYCAGGGRLYFDYWGQGTTVTVSS VL: DIVMTQSPLSLPVTPGEPASISCRSSQSLVHSNGDTYLRWYLQKPGQSPQLLIYKVSNRFSGVPDRFSGSGSGTDFTLKISRVEAEDVGVYYCSQSTHVPYTFGGGTKVEIK	0.73	0.44	2.87	5.11	
huAb3v2.2-CZ (antibody, V domains shown, synthon CZ on reduced interchain Cys, ADC, DAR 0.7) VH: EVQLVQSGAEVKKPGSSVKVSCKASGYTFSSYWMHWVRQAPGQGLEWIGLIHPWSGSTNYNEMFKNRATLTVDRSTSTAYMELSSLRSEDTAVYYCAGGGRLYFDYWGQGTTVTVSS VL: DIVMTQSPLSLPVTPGEPASISCRSSQSLVHSNRDTYLRWYLQKPGQSPQLLIYKVSNRFSGVPDRFSGSGSGTDFTLKISRVEAEDVGVYYCSQSTHVPYTFGGGTKVEIK		0.1	3.68	5.29	
huAb3v2.6-CZ (antibody, human IgG1, kappa, L234A L235A, V domains shown, synthon CZ on reduced interchain Cys) VH: EVQLVQSGAEVKKPGSSVKVSCKASGYTFSSYWMHWVRQAPGQGLEWIGLIHPESGSTNYNEMFKNRATLTVDRSTSTAYMELSSLRSEDTAVYYCAGGGRLYFDYWGQGTTVTVSS VL: DIVMTQSPLSLPVTPGEPASISCRSSQSLVHSNQDTYLRWYLQKPGQSPQLLIYKVSNRFSGVPDRFSGSGSGTDFTLKISRVEAEDVGVYYCSQSTHVPYTFGGGTKVEIKR		0.09	3.31	5.64	EC50 nM H1650 (tumor cell cytotoxicity) (Human full length B7-H3 [5]): 0.4 nM
huAb3v2.8-CZ (antibody, V domains shown, synthon CZ on reduced interchain Cys, ADC, DAR 2.0) VH: EVQLVQSGAEVKKPGSSVKVSCKASGYTFSSYWMHWVRQAPGQGLEWIGLIHPISGSTNYNEMFKNRATLTVDRSTSTAYMELSSLRSEDTAVYYCAGGGRLYFDYWGQGTTVTVSS VL: DIVMTQSPLSLPVTPGEPASISCRSSQSLVHSNRDTYLRWYLQKPGQSPQLLIYKVSNRFSGVPDRFSGSGSGTDFTLKISRVEAEDVGVYYCSQSTHVPYTFGGGTKVEIK		0.14	3.01	3.94	
huAb3v1-CZ (antibody, V domains shown, synthon CZ on reduced interchain Cys, ADC, DAR 3.6) VH: EVQLVQSGAEVKKPGSSVKVSCKASGYTFSSYWMHWVRQAPGQGLEWMGLIHPDSGSTNYNEMFKNRVTITADKSTSTAYMELSSLRSEDTAVYYCARGGRLYFDYWGQGTTVTVSS VL: DIVMTQSPLSLPVTPGEPASISCRSSQSLVHSNGDTYLRWYLQKPGQSPQLLIYKVSNRFSGVPDRFSGSGSGTDFTLKISRVEAEDVGVYYCSQSTHVPYTFGGGTKVEIK	1.45				
huAb3v3-CZ (antibody, V domains shown, synthon CZ on reduced interchain Cys, ADC, DAR 3.6) VH: EVQLVQSGAEVKKPGSSVKVSCKASGYTFSSYWMHWVRQAPGQGLEWIGLIHPDSGSTNYNEMFKNRATLTVDRSTSTAYVELSSLRSEDTAVYFCAGGGRLYFDYWGQGTTVTVSS VL: DVVMTQSPLSLPVTPGEPASISCRSSQSLVHSNGDTYLRWYLQKPGQSPQLLIYKVSNRFSGVPDRFSGSGSGTDFTLKISRVEAEDVGVYFCSQSTHVPYTFGGGTKVEIK	1.68				
huAb3v2.3-CZ (antibody, V domains shown, synthon CZ on reduced interchain Cys, ADC, DAR 1.1) VH: EVQLVQSGAEVKKPGSSVKVSCKASGYTFSSYWMHWVRQAPGQGLEWIGLIHPWSGSTNYNEMFKNRATLTVDRSTSTAYMELSSLRSEDTAVYYCAGGGRLYFDYWGQGTTVTVSS VL: DIVMTQSPLSLPVTPGEPASISCRSSQSLVHSNQDTYLRWYLQKPGQSPQLLIYKVSNRFSGVPDRFSGSGSGTDFTLKISRVEAEDVGVYYCSQSTHVPYTFGGGTKVEIK		0.11	4.03	6.5	
huAb3v5-CZ (antibody, V domains shown, synthon CZ on reduced interchain Cys, ADC, DAR 3.1) VH: EVQLVQSGAEVKKPGSSVKVSCKASGYTFSSYWMHWVRQAPGQGLEWIGLIHPDSGSTNYNEMFKNRATLTVDRSTSTAYMELSSLRSEDTAVYYCAGGGRLYFDYWGQGTTVTVSS VL: DVVMTQSPLSLPVTPGEPASISCRSSQSLVHSNGDTYLRWYLQKPGQSPQLLIYKVSNRFSGVPDRFSGSGSGTDFTLKISRVEAEDVGVYYCSQSTHVPYTFGGGTKVEIK	0.85				
huAb3v2.9-CZ (antibody, V domains shown, synthon CZ on reduced interchain Cys, ADC, DAR 2.7) VH: EVQLVQSGAEVKKPGSSVKVSCKASGYTFSSYWMHWVRQAPGQGLEWIGLIHPISGSTNYNEMFKNRATLTVDRSTSTAYMELSSLRSEDTAVYYCAGGGRLYFDYWGQGTTVTVSS VL: DIVMTQSPLSLPVTPGEPASISCRSSQSLVHSNQDTYLRWYLQKPGQSPQLLIYKVSNRFSGVPDRFSGSGSGTDFTLKISRVEAEDVGVYYCSQSTHVPYTFGGGTKVEIK		0.16	4.64	6.16	
huAb3v6-CZ (antibody, V domains shown, synthon CZ on reduced interchain Cys, ADC, DAR 3.3) VH: EVQLVQSGAEVKKPGSSVKVSCKASGYTFSSYWMHWVRQAPGQGLEWIGLIHPDSGSTNYNEMFKNRATLTVDRSTSTAYVELSSLRSEDTAVYFCAGGGRLYFDYWGQGTTVTVSS VL: DVVMTQSPLSLPVTPGEPASISCRSSQSLVHSNGDTYLRWYLQKPGQSPQLLIYKVSNRFSGVPDRFSGSGSGTDFTLKISRVEAEDVGVYYCSQSTHVPYTFGGGTKVEIK	1.78				
